# According to paper PMC5680296, “Tsg101 chaperone function revealed by HIV-1 assembly inhibitors” (Nature Communications, 2017):
# T1: Tsg101 UEV-N16 complex (UEV domain with N16 covalently attached at C73) (human, UniProt Q99816 2-145, C73 covalently attached (disulfide linkage) to the activated sulfenamide form of N16 (tenatoprazole))
# T1 construct: non-native glycine at the N-terminus (residue 1) left by TEV protease cleavage; Tsg101, ubiquitin E2 variant (UEV) domain, residues 2-145, as m1; same polypeptide as m1; also called N16-Tsg101 UEV complex; Tsg101-N16; source: E. coli Rosetta 2 (DE3) pLysS, purified as m1, then incubated with N16 in a 10:1 ratio (N16 excess); not shown: His6, N-terminal, cleaved
# T1 sequence: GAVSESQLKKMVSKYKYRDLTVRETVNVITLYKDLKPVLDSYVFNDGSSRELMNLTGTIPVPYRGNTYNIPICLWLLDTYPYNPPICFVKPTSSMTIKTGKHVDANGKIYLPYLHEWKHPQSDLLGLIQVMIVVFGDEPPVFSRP
# B1: Tsg101 UEV domain (residues 2–145) (domain or fragment, human)
# chain: T1 sequence
# notes: non-native glycine at the N-terminus (residue 1) left by TEV protease cleavage; Tsg101, ubiquitin E2 variant (UEV) domain, residues 2-145; the word human is printed for the full-length Tsg101 plasmids, not for this construct itself; also called Tsg101^2–145; 15N-Tsg101 UEV; not shown: His6, N-terminal, cleaved
# B2: PTAP peptide (Ace-NFLQSRPEPTAPPEE-CONH2) (peptide)
# peptide: Ac-NFLQSRPEPTAPPEE-NH2
# notes: also called Gag PTAP peptide; source: synthetic peptide (Bio-Synthesis, Texas)
# Columns and labels:
# Settings in all cases: both partners purified
# wild-type ubiquitin = target: T2, wild-type ubiquitin (UniProt P0CG48 1-76); assay: NMR titration; HSQC spectra of 15N-labelled Tsg101 UEV or UEV-N16 (200 μM) at 1:0, 1:0.5 and 1:1 ratio to unlabeled ubiquitin; 20 mM potassium phosphate, 50 mM NaCl, pH 5.8
# T2 construct: ubiquitin, wild type, unlabeled, encoded in pET-21a; source: E. coli BL21-Gold(DE3), purified (acid precipitation, HiTrap SP ion exchange, S75 gel filtration)
# [1] = target: T1, Tsg101 UEV-N16 complex (UEV domain with …); assay: NMR titration; chemical shift perturbations of 15N-labelled Tsg101 UEV or UEV-N16 (200 μM) on addition of PTAP peptide at a final 1:1 ratio; 20 mM potassium phosphate, 50 mM NaCl, pH 5.8
# [2] = target: B1; assay: as above
Binder,binding result (wild-type ubiquitin),binding result [1],binding result [2]
B1,binds,–,–
B2,–,binds,binds
